Measurements published in publication PMC4897640, “Functional diversity of family 3 β-glucosidases from thermophilic cellulolytic fungus Humicola insolens Y1” (Scientific Reports, 2016).

Substrate: O=[N+]([O-])c1ccc(O[C@@H]2O[C@H](CO)[C@@H](O)[C@H](O)[C@H]2O)cc1
Experiment: purified protein
Conditions: 100 mM Na2HPO4-citric acid
[1] = optimal conditions (pH 5.5, 55 °C in table; 60 °C in text), pH 5.5

Protein	Km (pH 5.5, 60 °C, pH 5.5, 60.0 °C) [µM]	Vmax (pH 5.5, 60 °C, pH 5.5, 60.0 °C) [µmol/min/mg]	kcat (pH 5.5, 60 °C, pH 5.5, 60.0 °C) [s⁻¹]	kcat/Km (pH 5.5, 60 °C, pH 5.5, 60.0 °C) [M⁻¹ s⁻¹]	Km (optimal conditions) [µM]	Vmax (optimal conditions) [µmol/min/mg]	kcat (optimal conditions) [s⁻¹]	kcat/Km (optimal conditions) [M⁻¹ s⁻¹]	Km [1] [µM]	kcat/Km [1] [M⁻¹ s⁻¹]
HiBgl3A (Mycothermus thermophilus) (protein) NRHRQVIGRNHLNHHHRSQRELAYSPPSYPSPWMDPKAAEWQNAYAKAKAFVSKLTLLEKVNLTTGVGWASEQCVGNTGSVPRLGLRGLCLHDSPLGIRGSDYNSAFPSGQTTAATFDRILMYRRGYAMGKEAKGKGINVLLGPVAGPLGRMPAAGRNWEGFSPDPVLTGVGMAETIKGIQDAGVVACAKHLIGNEQEHFRQAGEDYGFNITEALSSNIDDKTMHELYLWPFVDAVRAGVGSVMCAYTQVNNSYSCQNSYLLNYLLKNELGFQGFVMSDWQAQHAGVSAAVAGLDMSMPGDTTFNTGVSFWGANLTLAVLNGTVPRYRIDDMAMRIMAAFFKVHPDIHLDPVNFSFWTRQTYGPLHWRAGDGYQQVNFHVDVREDHHLLIREIAAKGTVLLKNTGGLPLKKPKFIAVIGDDAGPNPNGPNSCDDRGCNNGTLAMGWGSGTANFPYLITPDAALQARALRDGTRYESVLTNYALEKTETLVSQANATAIVFVNANSGEGYTRVDGNMGDRKNLTLWGNGDDLIKNVSSWCSNTIVVIHSTGPVLLTDWYNSPNITAILWAGLPGQESGNSLVDVLYGDVNPAGRTPFTWGATRESYGVDVMYKPNNDDGAPQQDFDEGVFIDYRYFDREDTPVIYEFGHGLSYTTFNYSNLKIEKHNAEPYKPTTGKTTPAPTFGQDDAYGYTGSEKYLFPPSPFRRITDYIYPYLNSTDPHEASLDPHYGQTAEQFLPPGALRADEQPLLRASGQHQPGGNPGLWDVLYTITADITNMGSVTGDEVPQLYVSLGGPQDPKVVLRGFDRLREIGPGETRQFMARLTRRDLSNWDPVLQDWVVGGHKKTVFVGKSSRKLELSAELP	900	46.2	73.1	81600	–	–	–	–	–	–
HiBgl3A (Mycothermus thermophilus; Y529T) (protein) NRHRQVIGRNHLNHHHRSQRELAYSPPSYPSPWMDPKAAEWQNAYAKAKAFVSKLTLLEKVNLTTGVGWASEQCVGNTGSVPRLGLRGLCLHDSPLGIRGSDYNSAFPSGQTTAATFDRILMYRRGYAMGKEAKGKGINVLLGPVAGPLGRMPAAGRNWEGFSPDPVLTGVGMAETIKGIQDAGVVACAKHLIGNEQEHFRQAGEDYGFNITEALSSNIDDKTMHELYLWPFVDAVRAGVGSVMCAYTQVNNSYSCQNSYLLNYLLKNELGFQGFVMSDWQAQHAGVSAAVAGLDMSMPGDTTFNTGVSFWGANLTLAVLNGTVPRYRIDDMAMRIMAAFFKVHPDIHLDPVNFSFWTRQTYGPLHWRAGDGYQQVNFHVDVREDHHLLIREIAAKGTVLLKNTGGLPLKKPKFIAVIGDDAGPNPNGPNSCDDRGCNNGTLAMGWGSGTANFPYLITPDAALQARALRDGTRYESVLTNYALEKTETLVSQANATAIVFVNANSGEGTTRVDGNMGDRKNLTLWGNGDDLIKNVSSWCSNTIVVIHSTGPVLLTDWYNSPNITAILWAGLPGQESGNSLVDVLYGDVNPAGRTPFTWGATRESYGVDVMYKPNNDDGAPQQDFDEGVFIDYRYFDREDTPVIYEFGHGLSYTTFNYSNLKIEKHNAEPYKPTTGKTTPAPTFGQDDAYGYTGSEKYLFPPSPFRRITDYIYPYLNSTDPHEASLDPHYGQTAEQFLPPGALRADEQPLLRASGQHQPGGNPGLWDVLYTITADITNMGSVTGDEVPQLYVSLGGPQDPKVVLRGFDRLREIGPGETRQFMARLTRRDLSNWDPVLQDWVVGGHKKTVFVGKSSRKLELSAELP	–	–	–	–	2450	43	68.2	27800	–	–
HiBgl3B (Mycothermus thermophilus; I311F) (protein) RVVEPRDPVPQGYHAASYYPAPHGGWVSSWREAYEKAYALVSQMTLAEKVNITSGVGIYMGPCVGNTGSVDRLGFPQLCLQDSALGVASADNVTAFPAGITTGATWDKQLMYARGVAIGKEFRGKGANIHLGPSVGPLGRKPLGGRNWEGFGSDPVLQGKAAALHIRGVQEQGIIATIKHLVGNEQEMYRMYHIFQEGYSANIDDRTLHELYLWPFAEAVRAGVGAAMTAYNAVNGSACSQNSYLINGILKDELGFQGLVMSDWLSHISGVGSALAGLDLNMPGDTNFPLFGNSLWQYELTRAVLNGSVPVDRLNDMATRVVATWYKFGQDKNHPRPNFSSNTRSRDGPLYPGALFSPSGQVNWFVNVQEDHYLVARQVAQDAITLLKNNDSLLPLDAGDLTGGKLSVFGTDAQVNPDGPNSCLARACNKGTLGMGWGSGIADYPYMDDPIGAIRKRVPDVKFYNTDSFPWFFGTPENDEVAMVFISSDSGENTLTVEGNHGDRDSAKLRAWHDGDKLVQKVAEKFKNVIVVVHTVGPLDLEPWIELPSVKAVLFAHLPGQEAGESLTNVLFGDVSPSGHLPYSITRKASDLPDSIANLKGFTWGQVQDTYSEGLYIDYRYLQKHSIQPRFAFGHGLSYTNFSFTNATIRAITTPLSVTPPAPPATRPASVVAKYSTDIPPASEAYEPAGFSRIWRYLYPWLSKSDADAAHAIGTSKSKTYPYPPGYSTVQRASFPPAGGGEGGNPALWDVAYEVTVRVTNTGKRPGKASAQLYLQFPEGIEYDTPVLQLRDFEKTKELQPGESQELKLTLTRKDVSVWDVRRQNWVVPTAIDDKKGFTAWVGEASDKLKVACYTGEGRCVEGAKQPV	–	–	–	–	2420	6.07	9.61	3980	–	–
HiBgl3B (Mycothermus thermophilus; I311F/I81W/T517Y) (protein) RVVEPRDPVPQGYHAASYYPAPHGGWVSSWREAYEKAYALVSQMTLAEKVNITSGVGWYMGPCVGNTGSVDRLGFPQLCLQDSALGVASADNVTAFPAGITTGATWDKQLMYARGVAIGKEFRGKGANIHLGPSVGPLGRKPLGGRNWEGFGSDPVLQGKAAALHIRGVQEQGIIATIKHLVGNEQEMYRMYHIFQEGYSANIDDRTLHELYLWPFAEAVRAGVGAAMTAYNAVNGSACSQNSYLINGILKDELGFQGLVMSDWLSHISGVGSALAGLDLNMPGDTNFPLFGNSLWQYELTRAVLNGSVPVDRLNDMATRVVATWYKFGQDKNHPRPNFSSNTRSRDGPLYPGALFSPSGQVNWFVNVQEDHYLVARQVAQDAITLLKNNDSLLPLDAGDLTGGKLSVFGTDAQVNPDGPNSCLARACNKGTLGMGWGSGIADYPYMDDPIGAIRKRVPDVKFYNTDSFPWFFGTPENDEVAMVFISSDSGENYLTVEGNHGDRDSAKLRAWHDGDKLVQKVAEKFKNVIVVVHTVGPLDLEPWIELPSVKAVLFAHLPGQEAGESLTNVLFGDVSPSGHLPYSITRKASDLPDSIANLKGFTWGQVQDTYSEGLYIDYRYLQKHSIQPRFAFGHGLSYTNFSFTNATIRAITTPLSVTPPAPPATRPASVVAKYSTDIPPASEAYEPAGFSRIWRYLYPWLSKSDADAAHAIGTSKSKTYPYPPGYSTVQRASFPPAGGGEGGNPALWDVAYEVTVRVTNTGKRPGKASAQLYLQFPEGIEYDTPVLQLRDFEKTKELQPGESQELKLTLTRKDVSVWDVRRQNWVVPTAIDDKKGFTAWVGEASDKLKVACYTGEGRCVEGAKQPV	–	–	–	–	2480	2.68	4.24	1710	–	–
HiBgl3B (Mycothermus thermophilus; T517Y) (protein) RVVEPRDPVPQGYHAASYYPAPHGGWVSSWREAYEKAYALVSQMTLAEKVNITSGVGIYMGPCVGNTGSVDRLGFPQLCLQDSALGVASADNVTAFPAGITTGATWDKQLMYARGVAIGKEFRGKGANIHLGPSVGPLGRKPLGGRNWEGFGSDPVLQGKAAALHIRGVQEQGIIATIKHLVGNEQEMYRMYHIFQEGYSANIDDRTLHELYLWPFAEAVRAGVGAAMTAYNAVNGSACSQNSYLINGILKDELGFQGLVMSDWLSHISGVGSALAGLDLNMPGDTNIPLFGNSLWQYELTRAVLNGSVPVDRLNDMATRVVATWYKFGQDKNHPRPNFSSNTRSRDGPLYPGALFSPSGQVNWFVNVQEDHYLVARQVAQDAITLLKNNDSLLPLDAGDLTGGKLSVFGTDAQVNPDGPNSCLARACNKGTLGMGWGSGIADYPYMDDPIGAIRKRVPDVKFYNTDSFPWFFGTPENDEVAMVFISSDSGENYLTVEGNHGDRDSAKLRAWHDGDKLVQKVAEKFKNVIVVVHTVGPLDLEPWIELPSVKAVLFAHLPGQEAGESLTNVLFGDVSPSGHLPYSITRKASDLPDSIANLKGFTWGQVQDTYSEGLYIDYRYLQKHSIQPRFAFGHGLSYTNFSFTNATIRAITTPLSVTPPAPPATRPASVVAKYSTDIPPASEAYEPAGFSRIWRYLYPWLSKSDADAAHAIGTSKSKTYPYPPGYSTVQRASFPPAGGGEGGNPALWDVAYEVTVRVTNTGKRPGKASAQLYLQFPEGIEYDTPVLQLRDFEKTKELQPGESQELKLTLTRKDVSVWDVRRQNWVVPTAIDDKKGFTAWVGEASDKLKVACYTGEGRCVEGAKQPV	–	–	–	–	2370	9.51	15.1	6360	–	–
HiBgl3C (Mycothermus thermophilus) (protein) APNCPVVPRQASGTAAWDTAYASARAAVARLSQQDKINIVTGIGWERGPCVGNTAPVNSIGYPQLCLQDGPLGIRFATGTTAFTPGVQAASTWDVDLIRQRGEYLGAEARAVGVHVLLGPVAGALGKIPHGGRNWEGFGSDPYLAGICMAETIEAIQSQGVQACAKHYIVNEQEWMRETMSSNVDDRTMHEIYLWPFADAAHSNVASFMCSYNKINGTWACESDSVQNKLLKQELGFRGYIMSDWNAQHTTVGSANSGMDMTMPGTDFSGGNVLWGPQLNNAVNSGQVSRARLDDMATRILAAWYLVGQDKGYPQVNLRLNVQGNHKENVRAVARDGIVLLRNEGNILPLGRPSRIAVVGSGAVIGRHAQNGCQDKGCNDGALGMGWGSGSVNYPYFVAPYDAIRERASRDGTQVSLHSSDNTNGVQNVVQGADVAIVFITADSGEGYITVEGHPGDRNHLDPWHNGNQLVQAVAAANKNTIVVVHSTGPIILETILNTPGVRAVVWAGLPSQENGNAIVDILYGSTSPSGKLVYTIAKRPEDYGVSIVRGDDNFREGVFVDYRWFDQNNIEPRFEFGFGLSYTNFSYSGLSITSNARAGPATGPTIPGGPADLWETVATVTAQITNTGGVAGAEVAQLYLTLPPTAPPAGPRQLRGFTKLKLQPGQTGTATFKLRKRDLSYWDVGRQQWVVPSGRFTISVGASSRDIRLTGSIDV	–	–	–	–	–	–	–	–	200	1.56e+06
